Measured values reported in US11629364B2, “Methods for synthesizing anticoagulant polysaccharides” (OPTIMVIA, LLC, priority 2019, dated 2023).

assay: NST activity: N-sulfated products detected by SAX-HPLC after lyase digestion; type: biochemical; conditions: PNS or NCS as sulfo donor, N-deacetylated heparosan acceptor, 37° C. overnight
Protocol: A study was conducted in accordance with embodiments of the present disclosure to confirm NST activity of enzymes comprising the amino acid sequence of SEQ ID NO: 2, SEQ ID NO: 4, SEQ ID NO: 6, SEQ ID NO: 8, SEQ ID NO: 10, or SEQ ID NO: 12 by detecting the presence of N-sulfated polysaccharide products formed as a result of their sulfotransfer reaction, using mass spectrometry (MS). Each engineered enzyme was purified according to the procedure of Example 1. Sulfotransferase activity was monitored in 100 μL reactions containing 50 μM of enzyme. To each purified protein solution, 20 mg of an aryl sulfate compound (either PNS or NCS) was dissolved in 2 mL of reaction buffer (50 mM IVIES pH 7.0, 2 mM CaCl2)), added to the protein solution, and incubated at 37° C. for 10 min. 2.5 mL of 2 mg/mL solution of N-deacetylated heparosan was added to protein/donor solution and incubated overnight at 37° C. The N-deacetylated heparosan was synthesized according to the protocol described in Balagurunathan, K. et al (eds.) (2015), Glycosaminoglycans: Chemistry and Biology, Methods in Molecular Biology, vol. 1229, DOI 10.1007/978-1-4939-1714-3_2, ©Springer Science+Business Media, New York, pp. 11-19 (section 3.1). To purify the N-sulfated product, the incubated reaction mixture was centrifuged the following day at 5,000×g for 10 min. The filter was washed once with 2 mL water, and centrifuged again. The filtrate was added to a 1K MWCO Dialysis membrane, dialyzed for 2 days in Milli-Q water, with water changes at 1 h, 2 h, 8 h, 16 h, 32 h, and then lyophilized.
The lyophilized N-sulfated products from each reaction were subsequently digested with a mixture of three carbon-oxygen lyases comprising the amino acid sequences of SEQ ID NO: 30, SEQ ID NO: 31, and SEQ ID NO: 32, which catalyze the β-eliminative cleavage of heparosan-based polysaccharides. Such lyases are available from New England Biolabs, among other chemical and biological commercial entities. 1 μL of each lyase was incubated with 50 μg of the lyophilized sulfated polysaccharide product and the provided digestion buffer, and incubated over 24 hours according to the packaged instructions provided by New England Biolabs with each lyase. After digestion, the lyase enzymes were inactivated by heating to 100° C. for 5 minutes. Samples were centrifuged at 14,000 rpm for 30 minutes before introduction to a strong anion exchange, high performance liquid chromatography (SAX) analysis. SAX analysis was performed on a Dionex Ultimate 3000 LC system interface. Separation was carried out on a 4.6×250 mm Waters Spherisorb analytical column with 5.0 μm particle size at 45° C. Mobile phase solution A was 2.5 mM sodium phosphate, pH 3.5, while mobile phase solution B was 2.5 mM sodium phosphate, pH 3.5, and 1.2 M Sodium perchlorate. After each sample was loaded onto the column, mobile phase solutions were applied to the column at a ratio of 98% mobile phase solution A and 2% mobile phase solution B for five minutes at a flow rate of 1.4 mL/min. After five minutes, a linear gradient of increasing mobile phase solution B was applied until the ratio of mobile phase solution A to mobile phase solution B was 50:50.

Molecule	NST sulfotransferase activity with aryl sulfate compounds
SEQ ID NO: 2: engineered aryl sulfate-dependent NST enzyme, mutant of N-sulfotransferase domain of human NDST (protein, Amino acid sequence encoding for engineered arylsulfate-dependent N-sulfotransferase variant 1, engineered aryl sulfate-dependent NST enzyme, mutant of N-sulfotransferase domain of human NDST) MSEEKDPLWQDPCEDKRHKDIWSKEKTCDRFPKLLIIGPQKTGAWALYHFLGMHPDLSSNYPSSETHGSIQFFNGHNYHKGIDWYMEFFPIPSNTTSDFYFEKSANYFDSEVAPRRAAALLPKAKVLTILINPADRAYSWYQHQRAHDDPVALKYTFHEVITAGSDASSKLRALQNRCLVPGWYATHIERWLSAYHANQILVLDGKLLRTEPAKVMDMVQKFLGVTNTIDYHKTLAFDPKKGFWCQLLEGGKTKCLGKSHGRKYPEMDLDSRAFLKDYYRDHNIELSKLLYKMGQTLPTWLREDLQNTR	activity with NCS only
SEQ ID NO: 4: engineered aryl sulfate-dependent NST enzyme, mutant of N-sulfotransferase domain of human NDST (protein, Amino acid sequence encoding for engineered arylsulfate-dependent N-sulfotransferase variant 2, engineered aryl sulfate-dependent NST enzyme, mutant of N-sulfotransferase domain of human NDST) MSEEKDPLWQDPCEDKRHKDIWSKEKTCDRFPKLLIIGPSKTGAFLLTHFLGMHPDLSSNYPSSETGHSIQFFNGHNYHKGIDWYMEFFPIPSNTTSDFYFETSSNYFDSEVAPRRAAALLPKAKVLTILINPADRAYSWYQHQRAHDDPVALKYTFHEVITAGSDASSKLRALQNRCLVPGWYATHIERWLSAYHANQILVLDGKLLRTEPAKVMDMVQKFLGVTNTIDYHKTLAFDPKKGFWCQLLEGGKTKCHGKRWGRKYPEMDLDSRAFLKDYYRDHNIELSKLLYKMGQTLPTWLREDLQNTR	activity with NCS only

assay: 6OST activity: 6-O sulfated products detected by LCMS after lyase digestion; type: biochemical; conditions: procedures of Example 4; expected
Protocol: A study was conducted in accordance with embodiments of the present disclosure to confirm 6OST activity of enzymes comprising the amino acid sequence of SEQ ID NO: 18, SEQ ID NO: 20, or SEQ ID NO: 22 by detecting the presence of 6-O sulfated polysaccharide products as a result of their sulfotransfer reaction, using a similar LCMS procedure as in Example 3, except that the sulfo acceptor polysaccharide was prepared by chemically 6-O desulfating commercially available heparin (CAS code: 9041-08-1, available from Millipore Sigma), according to the procedure provided by Kariya, Y., et al., (2000) J. Biol. Chem. 275 (34):25949-25958).

Molecule	6OST activity: N,2,6-HS products by MS
SEQ ID NO: 59: full-length mutant of isoform 3 of the mouse 6OST enzyme, SEQ ID NO: 18 mutations (protein, Amino acid sequence encoding for engineered arylsulfate-dependent 6-O-sulfotransferase variant 12) MDERFNKWLLTPVLTLLFVVIMYQYVSPSCTSSCTNFGEQLRSGEARPPAVPSPARRAQAPLDEWERRPQLPPPPRGPPEGSRGVAAPEDEDEDPGDPEEEEEEEEEEPDPEAPENGSLPRFVPRFNFTLKDLTRFVDFNIKGRDVIVFLHIGHTGGTTFGRHLVKNIRLEQPCSCKAGQKKCTCHRPGKKETWLFSRFSTGWSCGTNADWTELTNCVPAIMEKKDCPRNHSHTRNFYYITMLRDPVSRYLGGWKHHQRGGTNKTSLHMCDGRSPTPDELPTCYPGDDWSGVSLREFMDCSYNLANNRQVRMLADLSLVGCYNLTFMNESERNTILLQSAKNNLKNMAFFGLTEFQRKTQFLFERTFNLKFISPFTQVNITRASNVDINDGARQHIEELNFLDMQLYEYAKDLFQQRYHHTKQLEHQRDRQKRREERRLQREHRAHRWPKEDRAMEGTVTEDYNSQVVRW	confirm the presence of N,2,6-HS products
SEQ ID NO: 61: full-length mutant of isoform 3 of the mouse 6OST enzyme, SEQ ID NO: 22 mutations (protein, Amino acid sequence encoding for engineered arylsulfate-dependent 6-O-sulfotransferase variant 13) MDERFNKWLLTPVLTLLFVVIMYQYVSPSCTSSCTNFGEQLRSGEARPPAVPSPARRAQAPLDEWERRPQLPPPPRGPPEGSRGVAAPEDEDEDPGDPEEEEEEEEEEPDPEAPENGSLPRFVPRFNFTLKDLTRFVDFNIKGRDVIVFLHIGHTGGTTFGRHLVKNIRLEQPCSCKAGQKKCTCHRPGKKETWLFSRFSTGWSCGSHADWTELTNCVPAIMEKKDCPRNHSHTRNFYYITMLRDPVSRYLSGWKHHQRGGANKTSLHMCDGRSPTPDELPTCYPGDDWSGVSLREFMDCSYNLGNNRQVRMLADLSLVGCYNLTFMNESERNTILLQSAKNNLKNMAFFGLTEFQRKTQFLFERTFNLKFISPFTQFNITRASNVDINDGARQHIEELNFLDMQLYEYAKDLFQQRYHHTKQLEHQRDRQKRREERRLQREHRAHRWPKEDRAMEGTVTEDYNSQVVRW	confirm the presence of N,2,6-HS products
SEQ ID NO: 60: full-length mutant of isoform 3 of the mouse 6OST enzyme, SEQ ID NO: 20 mutations (protein, Amino acid sequence encoding for engineered arylsulfate-dependent 6-O-sulfotransferase variant 13) MDERFNKWLLTPVLTLLFVVIMYQYVSPSCTSSCTNFGEQLRSGEARPPAVPSPARRAQAPLDEWERRPQLPPPPRGPPEGSRGVAAPEDEDEDPGDPEEEEEEEEEEPDPEAPENGSLPRFVPRFNFTLKDLTRFVDFNIKGRDVIVFLHIGHTGGTTFGRHLVKNIRLEQPCSCKAGQKKCTCHRPGKKETWLFSRFSTGWSCGTRADWTELTNCVPAIMEKKDCPRNHSHTRNFYYITMLRDPVSRYLSHWKHTQRGGANKTGLHMCDGRSPTPDELPTCYPGDDWSGVSLREFMDCSYNLGNNRQVRMLADLSLVGCYNLTFMNESERNTILLQSAKNNLKNMAFFGLTEFQRKTQFLFERTFNLKFISPFTQFNITRASNVDINDGARQHIEELNFLDMQLYEYAKDLFQQRYHHTKQLEHQRDRQKRREERRLQREHRAHRWPKEDRAMEGTVTEDYNSQVVRW	confirm the presence of N,2,6-HS products
SEQ ID NO: 49: mutant of the full-length pig 6OST enzyme, SEQ ID NO: 20 mutations (protein, Amino acid sequence encoding for engineered arylsulfate-dependent 6-O-sulfotransferase variant 10) MRRRRAGSRTMVERASKFVLVVAGSACFMLILYQYAGPGLSLGAPGGRAPPDDLDLFPTPDPHYEKKYYFPVRELERSLHFDMKGDDVIVFLHIGHTGGTTFGRHLVQNVRLEVPCDCRPGQKKCTCYRPNRRETWLFSRFSTGWSCGTRADWTELTNCVPGVLDRRDPAALRTPRKFYYITLLRDPVSRYLSHWRHTQRGGANKTGLHMCDGRTPTPEELPPCYEGTDWSGCTLQEFMDCPYNLGNNRQVRMLADLSLVGCYNLSFIPEGKRSQLLLESAKKNLRGMAFFGLTEFQRKTQYLFERTFNLKFIRPFMQYNSTRAGGVEVGEDTIRRIEELNDLDMQLYDYARDLFQQRYQYKRQLERRQQRLRSREERLLHRAKEAPPRGDTEEPGRVPTEDYMSHIIEKW	confirm the presence of N,2,6-HS products
SEQ ID NO: 50: mutant of the full-length pig 6OST enzyme, SEQ ID NO: 22 mutations (protein, Amino acid sequence encoding for engineered arylsulfate-dependent 6-O-sulfotransferase variant 11) MRRRRAGSRTMVERASKFVLVVAGSACFMLILYQYAGPGLSLGAPGGRAPPDDLDLFPTPDPHYEKKYYFPVRELERSLHFDMKGDDVIVFLHIGHTGGTTFGRHLVQNVRLEVPCDCRPGQKKCTCYRPNRRETWLFSRFSTGWSCGSHADWTELTNCVPGVLDRRDPAALRTPRKFYYITLLRDPVSRYLSGWRHHQRGGANKTSLHMCDGRTPTPEELPPCYEGTDWSGCTLQEFMDCPYNLGNNRQVRMLADLSLVGCYNLSFIPEGKRSQLLLESAKKNLRGMAFFGLTEFQRKTQYLFERTFNLKFIRPFMQYNSTRAGGVEVGEDTIRRIEELNDLDMQLYDYARDLFQQRYQYKRQLERRQQRLRSREERLLHRAKEAPPRGDTEEPGRVPTEDYMSHIIEKW	confirm the presence of N,2,6-HS products
